Where a chain is given by its changes, count along the chain named.

The target in one test is T1, cyBCMA (cynomolgus, UniProt A0A2K5UD97 1-53).
T1 construct: Soluble analyte in SPR; construct not described; also called cyno BCMA
As to the kind of experiment: SPR, immobilised IgG, 37° C. In general terms: Surface plasmon resonance follows binding to a sensor surface in real time, without labels.

Test [1] has as its target T2, human BCMA (human, UniProt Q02223 1-54).
T2 construct: also called huBCMA; hBCMA
T2 sequence: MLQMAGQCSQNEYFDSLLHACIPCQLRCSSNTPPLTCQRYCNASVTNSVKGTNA
As to the kind of experiment: SPR, immobilised IgG, 37° C.

Test [2] addresses T2, human BCMA. Put plainly: SPR, immobilised IgG, 25° C.

T1 sequence (A0A2K5UD97 entry or part of it): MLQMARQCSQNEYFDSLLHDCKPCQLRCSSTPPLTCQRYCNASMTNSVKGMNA

B1: L3.PY/H2.DY (antibody, V domains shown)
VH: EVQLLESGGGLVQPGGSLRLSCAASGFTFGSYAMTWVRQAPGKGLEWVSAIDYSGGNTFYADSVKGRFTISRDNSKNTLYLQMNSLRAEDTAVYYCARVSPIASGMDYWGQGTLVTVSS
VL: EIVLTQSPGTLSLSPGERATLSCRASQSVSSSYLAWYQQKPGQAPRLLIYGASSRATGIPDRFSGSGSGTDFTLTISRLEPEDFAVYYCQHYPYPPSFTFGQGTKVEIK
notes: IgG in the assay
Turning to B1, the “T½” value in the test with cyBCMA was found to be 1.87 min; with human BCMA [1], 8.37 min.

B2: L3.PY/H2.QR (antibody, V domains shown)
VH: B1 VH with D52S, Y53G, S63Q, V64R
VL: B1 VL
notes: IgG in the assay
With B2, the results for the “T½” value with cyBCMA and with human BCMA [1] were 1.76 min and 9.75 min, respectively.

B3: L3.PY/L1.PH/P6E01 (antibody, V domains shown)
VH: B1 VH with D52S, Y53G
VL: B1 VL with S31P, S32H
notes: IgG in the assay
As to B3, the “T½” value with cyBCMA turned out to be 1.46 min; with human BCMA [1], 12.7 min.

B4: L3.PY/L1.AH/H2.QL (antibody, V domains shown)
VH: B1 VH with D52S, Y53G, S63Q, V64L
VL: B1 VL with S31A, S32H
notes: IgG in the assay
Turning to B4, the “T½” value turned out to be 1.21 min with cyBCMA and 7.22 min with human BCMA [1].

B5: L3.PY/L1.AH/H2.YQ (antibody, V domains shown)
VH: B1 VH with D52S, S54Q
VL: B1 VL with S31A, S32H
notes: IgG in the assay
As for B5, the entries for the “T½” value with cyBCMA and in the test with human BCMA [1] were 2.68 min and 6 min, respectively.

B6: L3.PY/H2.LT (antibody, V domains shown)
VH: B1 VH with D52S, Y53L, S54T
VL: B1 VL
notes: IgG in the assay
As for B6, the “T½” value in the test with cyBCMA was 1.53 min; with human BCMA [1], 8.95 min.

B7: L3.PY/L1.PS/H2.YQ (antibody, V domains shown)
VH: B1 VH with D52S, S54Q
VL: B1 VL with L34P, A35S
notes: IgG in the assay
On to B7, for which the “T½” value amounted to 3.09 min in the test with cyBCMA and 2.69 min in the test with human BCMA [1].

B8: L3.PY/L1.PS/H3.AE (antibody, V domains shown)
VH: B1 VH with D52S, Y53G, S104A, G105E
VL: B1 VL with L34P, A35S
notes: IgG in the assay
In the case of B8, the “T½” value amounted to 2.8 min in the test with cyBCMA and 7.93 min with human BCMA [1].

B9: L3.PY/L1.PS/H3.TAQ (antibody, V domains shown)
VH: B1 VH with D52S, Y53G, A97T, S104A, G105Q
VL: B1 VL with L34P, A35S
notes: IgG in the assay
With B9, the “T½” value came to 2.09 min with cyBCMA and 4.7 min with human BCMA [1].

B10: L3.PY/L1.AH/H2.DY (antibody, V domains shown)
VH: B1 VH
VL: B1 VL with S31A, S32H
notes: IgG in the assay
Regarding B10, the results for the “T½” value with cyBCMA and with human BCMA [1] were 2.56 min and 7.62 min, respectively.

B11: L3.PY/L1.AH/H3.AQ (antibody, V domains shown)
VH: B1 VH with D52S, Y53G, S104A, G105Q
VL: B1 VL with S31A, S32H
notes: IgG in the assay
As to B11, the figures for the “T½” value with cyBCMA and in the test with human BCMA [1] were 2.9 min and 5.85 min, respectively.

B12: L3.PY/L1.AH/P6E01 (antibody, V domains shown)
VH: B1 VH with D52S, Y53G
VL: B1 VL with S31A, S32H
notes: IgG in the assay
As for B12, the “T½” value with cyBCMA was determined as 2.02 min; in the test with human BCMA [1] it was 9.19 min.

B13: L3.PY/H3.TAQ (antibody, V domains shown)
VH: B1 VH with D52S, Y53G, A97T, S104A, G105Q
VL: B1 VL
notes: IgG in the assay; also called P6E01 L3PY/H3TAQ
As to B13, the “T½” value turned out to be 2.64 min with cyBCMA and 10.1 min with human BCMA [1].

B14: L3.PY/L1.FF/P6E01 (antibody, V domains shown)
VH: B1 VH with D52S, Y53G
VL: B1 VL with S32F, Y33F
notes: IgG in the assay
On to B14, for which the “T½” value was found to be 1.96 min in the test with cyBCMA and 8.18 min with human BCMA [1].

B15: L3.PY/H3.YA (antibody, V domains shown)
VH: B1 VH with D52S, Y53G, A103Y, S104A
VL: B1 VL
notes: IgG in the assay
Take B15: the “T½” value stood at 2.14 min with cyBCMA and 9.82 min with human BCMA [1].

B16: L3.PY/L1.AH/H2.QR (antibody, V domains shown)
VH: B1 VH with D52S, Y53G, S63Q, V64R
VL: B1 VL with S31A, S32H
notes: IgG in the assay
On to B16, for which the “T½” value with cyBCMA was 2.35 min; with human BCMA [1], 6.39 min.

B17: P6E01/H3.AQ (antibody, V domains shown)
VH: B1 VH with D52S, Y53G, S104A, G105Q
VL: not shown
notes: IgG in the assay
As for B17, the “T½” value in the test with human BCMA [2] was 33.5 min.

B18: L3.PY/H2.YQ (antibody, V domains shown)
VH: B1 VH with D52S, S54Q
VL: B1 VL
notes: IgG in the assay
As for B18, the figures for the “T½” value with cyBCMA and in the test with human BCMA [1] were 1.86 min and 7.41 min, respectively.

B19: L3.PY/L1.PS/P6E01 (antibody, V domains shown)
VH: B1 VH with D52S, Y53G
VL: B1 VL with L34P, A35S
notes: IgG in the assay
For B19, the “T½” value worked out at 1.91 min with cyBCMA and 10.2 min with human BCMA [1].

B20: L3.PY/L1.PS/H2.HA (antibody, V domains shown)
VH: B1 VH with D52S, Y53H, S54A
VL: B1 VL with L34P, A35S
notes: IgG in the assay
For B20, the “T½” value in the test with cyBCMA came to 4.3 min; in the test with human BCMA [1], 1.09 min.

B21: L3.PY/L1.AH/H2.HA (antibody, V domains shown)
VH: B1 VH with D52S, Y53H, S54A
VL: B1 VL with S31A, S32H
notes: IgG in the assay
Consider B21, for which the figures for the “T½” value with cyBCMA and with human BCMA [1] were 2.63 min and 6.37 min, respectively.

B22: L3.PY/H3.AQ (antibody, V domains shown)
VH: B1 VH with D52S, Y53G, S104A, G105Q
VL: B1 VL
notes: IgG in the assay
As to B22, the “T½” value in the test with cyBCMA amounted to 2.14 min; with human BCMA [1], 6.69 min.

B23: L3.PY/L1.PS/H2.LT (antibody, V domains shown)
VH: B1 VH with D52S, Y53L, S54T
VL: B1 VL with L34P, A35S
notes: IgG in the assay
B23: the “T½” value came to 2.81 min with cyBCMA and 2.49 min in the test with human BCMA [1].

B24: L3.PY/L1.PS/H2.QL (antibody, V domains shown)
VH: B1 VH with D52S, Y53G, S63Q, V64L
VL: B1 VL with L34P, A35S
notes: IgG in the assay
As for B24, the results for the “T½” value with cyBCMA and in the test with human BCMA [1] were 18.2 min and 0.04 min, respectively.

B25: L3.PY/L3.KF/P6E01 (antibody, V domains shown)
VH: B1 VH with D52S, Y53G
VL: B1 VL with Q90K, H91F
notes: IgG in the assay
For the molecule B25, the “T½” value with cyBCMA stood at 1.39 min; with human BCMA [1], 5.56 min.

B26: L3.PY/L1.AH/H2.LT (antibody, V domains shown)
VH: B1 VH with D52S, Y53L, S54T
VL: B1 VL with S31A, S32H
notes: IgG in the assay
With B26, the “T½” value stood at 3.91 min in the test with cyBCMA and 9.38 min with human BCMA [1].

B27: L3.PY/L1.PS/H2.QR (antibody, V domains shown)
VH: B1 VH with D52S, Y53G, S63Q, V64R
VL: B1 VL with L34P, A35S
notes: IgG in the assay
Take B27: the “T½” value with cyBCMA is 17.2 min; with human BCMA [1], 0.11 min.

B28: L3.PY/H2.HA (antibody, V domains shown)
VH: B1 VH with D52S, Y53H, S54A
VL: B1 VL
notes: IgG in the assay
B28: the “T½” value is 1.53 min with cyBCMA and 7.89 min in the test with human BCMA [1].

B29: L3.PY/L1.PS/H3.YA (antibody, V domains shown)
VH: B1 VH with D52S, Y53G, A103Y, S104A
VL: B1 VL with L34P, A35S
notes: IgG in the assay
Consider B29, for which the “T½” value with cyBCMA amounted to 1.16 min; in the test with human BCMA [1] it was 1.28 min.

B30: L3.PY/L1.PS/H2.DY (antibody, V domains shown)
VH: B1 VH
VL: B1 VL with L34P, A35S
notes: IgG in the assay
As for B30, the figures for the “T½” value with cyBCMA and with human BCMA [1] were 3.06 min and 3.2 min, respectively.

B31: L3.PY/L1.AH/H3.YA (antibody, V domains shown)
VH: B1 VH with D52S, Y53G, A103Y, S104A
VL: B1 VL with S31A, S32H
notes: IgG in the assay
For the molecule B31, the results for the “T½” value in the test with cyBCMA and with human BCMA [1] were 2.2 min and 7.73 min, respectively.

B32: L3.PY/H3.AE (antibody, V domains shown)
VH: B1 VH with D52S, Y53G, S104A, G105E
VL: B1 VL
notes: IgG in the assay
Regarding B32, the figures for the “T½” value with cyBCMA and in the test with human BCMA [1] were 2.29 min and 8.32 min, respectively.

B33: L3.PY/L1.PS/H3.AQ (antibody, V domains shown)
VH: B1 VH with D52S, Y53G, S104A, G105Q
VL: B1 VL with L34P, A35S
notes: IgG in the assay
Consider B33, for which the results for the “T½” value in the test with cyBCMA and in the test with human BCMA [1] were 2.67 min and 6.46 min, respectively.

B34: P6E01/P6E01 (antibody, V domains shown)
VH: B1 VH with D52S, Y53G
VL: not shown
notes: IgG in the assay; also called P6E01_VHVL
B34: in the test with human BCMA [2], the “T½” value came out at 2.8 min.

B35: L3.PY/L1.AH/H3.AE (antibody, V domains shown)
VH: B1 VH with D52S, Y53G, S104A, G105E
VL: B1 VL with S31A, S32H
notes: IgG in the assay
B35: the “T½” value is 3.25 min with cyBCMA and 6.7 min with human BCMA [1].

B36: L3.PY/L3.KY/P6E01 (antibody, V domains shown)
VH: B1 VH with D52S, Y53G
VL: B1 VL with Q90K, H91Y
notes: IgG in the assay
For the molecule B36, the “T½” value with cyBCMA was determined as 2.3 min; in the test with human BCMA [1] it was 10.7 min.

B37: L3.PY/H2.QL (antibody, V domains shown)
VH: B1 VH with D52S, Y53G, S63Q, V64L
VL: B1 VL
notes: IgG in the assay
With B37, the “T½” value with cyBCMA came out at 0.91 min; in the test with human BCMA [1], 5.31 min.

These data come from patent US20240018252A1 (Pfizer, published 2024).
